Biological target: T1, NaWRKY70 (Nicotiana attenuata, UniProt A0A1J6IGI0 1-225)
T1 chain: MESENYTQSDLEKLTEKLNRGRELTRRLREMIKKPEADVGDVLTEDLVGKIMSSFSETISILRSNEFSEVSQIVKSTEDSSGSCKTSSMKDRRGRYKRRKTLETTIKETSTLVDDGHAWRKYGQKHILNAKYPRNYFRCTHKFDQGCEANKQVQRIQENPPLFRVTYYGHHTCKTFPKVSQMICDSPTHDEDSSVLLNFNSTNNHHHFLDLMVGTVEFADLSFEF
Experiment: EMSA; Chemiluminescence EMSA kit (Beyotime), manufacturer's protocol; buffer, salt, pH and temperature not stated
Details: protein: recombinant; tags: GST (pGEX-4T-1); chain copies: 0; label: biotin

B1: NaF6'H1 mProbe 1 (dsDNA)
DNA 1: GGTCTCTTTAGCTCTACCAACTATTC
DNA 2: GAATAGTTGGTAGAGCTAAAGAGACC
binding result: no binding
